Results published in US20130040894A1, “INHIBITION OR ACTIVATION OF SERINE/THREONINE ULK3 KINASE ACTIVITY” (TALLINN UNIVERSITY OF TECHNOLOGY, priority 2009, published 2013).

Tested on: GLI-dependent firefly luciferase activity in Shh-LIGHT2 cells
Experiment: GLI-dependent luciferase assay in Shh-L2 cells
Format: cell-based, mouse
Conditions: for enhancement of transcriptional activity of overexpressed GLI1: cotransfected with GLI1, Shh-L2 cells; for enhancement of transcriptional activity of overexpressed GLI2: cotransfected with GLI2, Shh-L2 cells; for stimulation of GLI-dependent luciferase activity: kinase construct alone, Shh-L2 cells, normalized with β-galactosidase
Protocol: Cells were transfected by the expression constructs or respective empty vectors using Polyethylenimine transfection agent (PEI) (Inbio) and as described in [28]. We used 0.25 μg of cDNA per 1 cm^2 of plate surface area for transfections. After 3 h of transfection HEK293, NIH3T3 and Cos1 cells were propagated in the normal growth medium for 48 h. Prior the further analysis the cells were washed twice with PBS. Post-transfectional Shh-L2 cells were grown in the normal growth medium for 24 h and for additional 24 h in the Light medium containing 0.25% FBS, washed once with PBS, lysed in Passive Lysis Buffer (Promega, Madison Wis., USA) (70 ul per well of 24-well plate format) and subjected to luciferase assay.
Luciferase assay was performed as previously described. Briefly, firefly luciferase activity of 12 μl of the Shh-L2 cells lysate was measured using Luciferase Assay Kit (Promega) and galactosidase activity was quantified using Galacto-LightPlus kit (Tropix, Bedford Mass., USA) according to the manufacturer's instructions. Chemiluminicence was measured using Ascent FL Fluoroscan (Thermo Electron Corporation, Waltham Mass., USA) according to the manufacturer's instructions.
We cotransfected the constructs together with GLI-expressing plasmids (or respective empty vector) into Shh-L2 cells and assessed their effect on GLI-dependent firefly luciferase activity. The obtained data was normalized with β-galactosidase values. […] It was able to stimulate the luciferase activity 3.8 times and enhanced the transcriptional activity of over expressed GLI1 and GLI2 approximately 2 and 3.2 times, respectively. The potency of STK36 in the assay was much lower.
In order to examine if the kinase activity of ULK3 is required for the luciferase reporter activation we tested the supposed kinase-deficient variants of ULK3, ULK3(K44R) and ULK3(K139R) in the same assay. […] We also tested the effect of ULK3 and the mutants on the luciferase reporter when the SHH pathway was activated by cotransfection with pShhN (plasmid expressing biologically active part of SHH).

B1: STK36: human serine/threonine kinase STK36, mammalian orthologue of dFu, expressed from STK36pcDNA3.1 (protein, UniProt Q9NRP7 1-1315, looked up)
Serine/threonine-protein …: MEKYHVLEMIGEGSFGRVYKGRRKYSAQVVALKFIPKLGRSEKELRNLQREIEIMRGLRHPNIVHMLDSFETDKEVVVVTDYAEGELFQILEDDGKLPEDQVQAIAAQLVSALYYLHSHRILHRDMKPQNILLAKGGGIKLCDFGFARAMSTNTMVLTSIKGTPLYMSPELVEERPYDHTADLWSVGCILYELAVGTPPFYATSIFQLVSLILKDPVRWPSTISPCFKNFLQGLLTKDPRQRLSWPDLLYHPFIAGHVTIITEPAGPDLGTPFTSRLPPELQVLKDEQAHRLAPKGNQSRILTQAYKRMAEEAMQKKHQNTGPALEQEDKTSKVAPGTAPLPRLGATPQESSLLAGILASELKSSWAKSGTGEVPSAPRENRTTPDCERAFPEERPEVLGQRSTDVVDLENEEPDSDNEWQHLLETTEPVPIQLKAPLTLLCNPDFCQRIQSQLHEAGGQILKGILEGASHILPAFRVLSSLLSSCSDSVALYSFCREAGLPGLLLSLLRHSQESNSLQQQSWYGTFLQDLMAVIQAYFACTFNLERSQTSDSLQVFQEAANLFLDLLGKLLAQPDDSEQTLRRDSLMCFTVLCEAMDGNSRAISKAFYSSLLTTQQVVLDGLLHGLTVPQLPVHTPQGAPQVSQPLREQSEDIPGAISSALAAICTAPVGLPDCWDAKEQVCWHLANQLTEDSSQLRPSLISGLQHPILCLHLLKVLYSCCLVSEGLCRLLGQEPLALESLFMLIQGKVKVVDWEESTEVTLYFLSLLVFRLQNLPCGMEKLGSDVATLFTHSHVVSLVSAAACLLGQLGQQGVTFDLQPMEWMAAATHALSAPAEVRLTPPGSCGFYDGLLILLLQLLTEQGKASLIRDMSSSEMWTVLWHRFSMVLRLPEEASAQEGELSLSSPPSPEPDWTLISPQGMAALLSLAMATFTQEPQLCLSCLSQHGSILMSILKHLLCPSFLNQLRQAPHGSEFLPVVVLSVCQLLCFPFALDMDADLLIGVLADLRDSEVAAHLLQVCCYHLPLMQVELPISLLTRLALMDPTSLNQFVNTVSASPRTIVSFLSVALLSDQPLLTSDLLSLLAHTARVLSPSHLSFIQELLAGSDESYRPLRSLLGHPENSVRAHTYRLLGHLLQHSMALRGALQSQSGLLSLLLLGLGDKDPVVRCSASFAVGNAAYQAGPLGPALAAAVPSMTQLLGDPQAGIRRNVASALGNLGPEGLGEELLQCEVPQRLLEMACGDPQPNVKEAALIALRSLQQEPGIHQVLVSLGASEKLSLLSLGNQSLPHSSPRPASAKHCRKLIHLLRPAHSM
enhancement of transcriptional activity of overexpressed GLI1: no effect | enhancement of transcriptional activity of overexpressed GLI2: 1.6 times | stimulation of GLI-dependent luciferase activity: failed to activate

B2: ULK1: unc-51-like kinase 1, homologue of ULK3, overexpressed in Shh-L2 cells (protein, UniProt O75385 1-1050, looked up)
Serine/threonine-protein …: MEPGRGGTETVGKFEFSRKDLIGHGAFAVVFKGRHREKHDLEVAVKCINKKNLAKSQTLLGKEIKILKELKHENIVALYDFQEMANSVYLVMEYCNGGDLADYLHAMRTLSEDTIRLFLQQIAGAMRLLHSKGIIHRDLKPQNILLSNPAGRRANPNSIRVKIADFGFARYLQSNMMAATLCGSPMYMAPEVIMSQHYDGKADLWSIGTIVYQCLTGKAPFQASSPQDLRLFYEKNKTLVPTIPRETSAPLRQLLLALLQRNHKDRMDFDEFFHHPFLDASPSVRKSPPVPVPSYPSSGSGSSSSSSSTSHLASPPSLGEMQQLQKTLASPADTAGFLHSSRDSGGSKDSSCDTDDFVMVPAQFPGDLVAEAPSAKPPPDSLMCSGSSLVASAGLESHGRTPSPSPPCSSSPSPSGRAGPFSSSRCGASVPIPVPTQVQNYQRIERNLQSPTQFQTPRSSAIRRSGSTSPLGFARASPSPPAHAEHGGVLARKMSLGGGRPYTPSPQVGTIPERPGWSGTPSPQGAEMRGGRSPRPGSSAPEHSPRTSGLGCRLHSAPNLSDLHVVRPKLPKPPTDPLGAVFSPPQASPPQPSHGLQSCRNLRGSPKLPDFLQRNPLPPILGSPTKAVPSFDFPKTPSSQNLLALLARQGVVMTPPRNRTLPDLSEVGPFHGQPLGPGLRPGEDPKGPFGRSFSTSRLTDLLLKAAFGTQAPDPGSTESLQEKPMEIAPSAGFGGSLHPGARAGGTSSPSPVVFTVGSPPSGSTPPQGPRTRMFSAGPTGSASSSARHLVPGPCSEAPAPELPAPGHGCSFADPITANLEGAVTFEAPDLPEETLMEQEHTEILRGLRFTLLFVQHVLEIAALKGSASEAAGGPEYQLQESVVADQISLLSREWGFAEQLVLYLKVAELLSSGLQSAIDQIRAGKLCLSSTVKQVVRRLNELYKASVVSCQGLSLRLQRFFLDKQRLLDRIHSITAERLIFSHAVQMVQSAALDEMFQHREGCVPRYHKALLLLEGLQHMLSDQADIENVTKCKLCIERRLSALLTGICA
enhancement of transcriptional activity of overexpressed GLI1: no effect | enhancement of transcriptional activity of overexpressed GLI2: no effect | stimulation of GLI-dependent luciferase activity: 3.4 times
